These are literature values, as cited in publication PMC5735807.

The target of data set [1] is Fas (Homo sapiens) (UniProt P25445).
The target of data set [2] is CD36 (Homo sapiens) (UniProt P16671).
CD36 (Homo sapiens), sequence (P16671 2-472): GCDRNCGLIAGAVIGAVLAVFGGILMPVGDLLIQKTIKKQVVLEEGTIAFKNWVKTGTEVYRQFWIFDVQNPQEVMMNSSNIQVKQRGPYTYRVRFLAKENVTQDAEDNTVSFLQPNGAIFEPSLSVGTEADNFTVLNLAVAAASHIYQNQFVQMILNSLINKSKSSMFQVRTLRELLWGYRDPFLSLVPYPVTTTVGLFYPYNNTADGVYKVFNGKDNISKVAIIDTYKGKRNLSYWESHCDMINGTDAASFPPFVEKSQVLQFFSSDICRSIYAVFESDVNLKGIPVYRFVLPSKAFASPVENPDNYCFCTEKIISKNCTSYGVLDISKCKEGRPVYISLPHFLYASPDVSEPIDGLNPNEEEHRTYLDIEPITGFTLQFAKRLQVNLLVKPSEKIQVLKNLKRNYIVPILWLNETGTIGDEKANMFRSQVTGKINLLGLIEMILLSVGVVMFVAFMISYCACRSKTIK

FasL, sequence (P48023 1-81): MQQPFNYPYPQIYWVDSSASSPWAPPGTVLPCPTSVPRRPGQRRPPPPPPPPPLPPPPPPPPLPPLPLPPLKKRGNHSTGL
TSP1, sequence (P07996 19-1170): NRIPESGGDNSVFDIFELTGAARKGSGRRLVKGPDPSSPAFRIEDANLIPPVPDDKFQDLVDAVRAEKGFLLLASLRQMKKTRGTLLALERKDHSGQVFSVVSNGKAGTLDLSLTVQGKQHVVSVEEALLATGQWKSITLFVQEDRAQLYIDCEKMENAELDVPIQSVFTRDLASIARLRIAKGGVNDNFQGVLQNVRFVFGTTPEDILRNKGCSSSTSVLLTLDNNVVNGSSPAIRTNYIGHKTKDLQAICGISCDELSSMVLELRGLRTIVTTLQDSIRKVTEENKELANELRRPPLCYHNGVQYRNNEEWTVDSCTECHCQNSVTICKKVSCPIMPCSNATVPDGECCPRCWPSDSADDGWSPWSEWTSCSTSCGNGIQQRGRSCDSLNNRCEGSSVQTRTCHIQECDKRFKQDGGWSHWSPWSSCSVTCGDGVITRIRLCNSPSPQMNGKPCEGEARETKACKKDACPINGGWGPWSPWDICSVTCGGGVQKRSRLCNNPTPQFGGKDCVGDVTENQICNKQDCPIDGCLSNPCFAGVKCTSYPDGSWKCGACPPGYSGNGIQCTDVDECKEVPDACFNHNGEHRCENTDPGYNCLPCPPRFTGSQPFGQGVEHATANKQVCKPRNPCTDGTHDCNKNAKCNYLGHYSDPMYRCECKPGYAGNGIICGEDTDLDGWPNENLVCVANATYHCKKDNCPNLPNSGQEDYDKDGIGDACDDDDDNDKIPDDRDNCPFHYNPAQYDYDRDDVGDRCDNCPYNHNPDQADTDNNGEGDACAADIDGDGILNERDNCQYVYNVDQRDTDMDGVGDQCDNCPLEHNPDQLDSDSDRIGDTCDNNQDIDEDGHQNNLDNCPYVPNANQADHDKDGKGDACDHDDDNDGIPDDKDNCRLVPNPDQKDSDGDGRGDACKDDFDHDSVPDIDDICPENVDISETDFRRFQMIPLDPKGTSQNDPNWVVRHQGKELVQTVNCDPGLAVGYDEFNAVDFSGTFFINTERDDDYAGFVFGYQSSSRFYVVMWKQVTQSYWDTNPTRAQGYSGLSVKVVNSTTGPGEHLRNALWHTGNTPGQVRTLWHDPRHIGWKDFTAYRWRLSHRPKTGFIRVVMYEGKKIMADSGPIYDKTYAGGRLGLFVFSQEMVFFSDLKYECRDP
Fas (Homo sapiens), sequence (P25445 26-335): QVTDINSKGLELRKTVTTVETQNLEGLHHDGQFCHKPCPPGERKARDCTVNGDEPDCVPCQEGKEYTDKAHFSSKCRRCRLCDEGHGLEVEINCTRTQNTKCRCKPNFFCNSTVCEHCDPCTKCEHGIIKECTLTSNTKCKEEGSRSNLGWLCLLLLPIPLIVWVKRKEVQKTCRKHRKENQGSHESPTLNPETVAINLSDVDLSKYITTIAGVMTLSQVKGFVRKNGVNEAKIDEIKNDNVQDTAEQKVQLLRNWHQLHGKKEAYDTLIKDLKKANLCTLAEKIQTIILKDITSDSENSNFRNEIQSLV

Consider FasL (from UniProt P48023), for which, in data set [1], the Kd (usually the constant that tells how readily two partners part at equilibrium) was 0.4 nM.
Consider TSP1 (from UniProt P07996), for which, in data set [2], the dissociation constant Kd is 230 nM.
